The text below walks through data of article doi:10.1101/2021.04.29.441998 (bioRxiv, 2021).

The target of data set [1] is T1, Melbournevirus histone doublet MV-H2B-H2A (MEL_369) (Melbournevirus, UniProt A0A097I2B5 1-269).
T1 sequence (looked up): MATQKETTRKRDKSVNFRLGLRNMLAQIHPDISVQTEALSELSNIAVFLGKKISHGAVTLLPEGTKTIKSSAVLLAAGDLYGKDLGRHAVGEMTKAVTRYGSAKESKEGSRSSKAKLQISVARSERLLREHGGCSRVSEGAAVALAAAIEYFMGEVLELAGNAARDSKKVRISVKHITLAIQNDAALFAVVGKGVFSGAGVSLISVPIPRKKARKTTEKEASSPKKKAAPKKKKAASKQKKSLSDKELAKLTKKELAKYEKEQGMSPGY
Put plainly: cryo-EM structure.

Data set [2] deals with the molecule itself. Kind of data set: cryo-EM structure.

B1: Melbournevirus histone doublet MV-H4-H3 (MEL_368) (natural protein, UniProt A0A097I2D0 1-216, looked up)
chain: MSKAGKKVKAQQHGHLADHVSVGETQIPKASTQHLLRKAGSLSAAGDTEVPIRGFVHMKLHKLVQKSLLAMQLAKRKTIMKSDVKKAAELMHLPVFAIPTKDSGAKGSVFLSCRQKGAGSAGTGSETNSQEVRSQMKSTCLIIPKERFRTMAKEISKKEGHDVHIAEAALDMLQVIVESCTVRLLEKALVITYSGKRTRVTSKDIETAFMLEHGPL
Turning to B1, the binding result in data set [1] and in data set [2] was “binds” throughout.
